# Data published in patent US20220281931.
# Biological target: Strep II-Avi BCL6^5-360
protein,measurement,value
Flag-SIAH1^FL (protein) MSRQTATALPTGTSKCPPSQRVPALTGTTASNNDLASLFECPVCFDYVLPPILQCQSGHLVCSNCRPKLTCCPTCRGPLGSIRNLAMEKVANSVLFPCKYASSGCEITLPHTEKADHEELCEFRPYSCPCPGASCKWQGSLDAVMPHLMHQHKSITTLQGEDIVFLATDINLPGAVDWVMMQSCFGFHFMLVLEKQEKYDGHQQFFAIVQLIGTRKQAENFAYRLELNGHRRRLTWEATPRSIHEGIATAIMNSDCLVFDTSIAQLFAENGNLGINVTISMC,"in vitro ubiquitination (western blot, Strep tag II antibody)","BCL6 is a substrate for SIAH1 (FIG. 10D), and that the rate and magnitude of ubiquitination is accelerated by BI-3802 (FIG. 4B)"
